# Data taken from publication PMC7055384, “The resolution revolution in cryoEM requires high-quality sample preparation: a rapid pipeline to a high-resolution map of yeast fatty acid synthase” (IUCrJ, 2020).
# Target: the molecule itself
# Assay: cryo-EM structure; FAS (0.3 mg/ml, buffer 100 mM sodium phosphate pH 6.5) incubated with 1 mM NADPH and 1 mM malonyl-CoA for 5 min, on hydrophilized graphene-coated Quantifoil grids; D3 symmetry applied; 3.1 Å
protein,measurement,value
"yeast fatty acid synthase subunit α (FAS2) (enzyme, S. cerevisiae, additional density at Ser1440 suggesting phosphorylation, fatty acid synthase subunit α, S. cerevisiae, encoded by FAS2 on a pRS shuttle vector; holds the PPT domain at its C-terminus; this follows from DM4 holding the PPT domain, which it places in subunit α) MKPEVEQELAHILLTELLAYQFASPVRWIETQDVFLKDFNTERVVEIGPSPTLAGMAQRTLKNKYESYDAALSLHREILCYSKDAKEIYYTPDPSELAAKEEPAKEEAPAPTPAASAPAPAAAAPAPVAAAAPAAAAAEIADEPVKASLLLHVLVAHKLKKSLDSIPMSKTIKDLVGGKSTVQNEILGDLGKEFGTTPEKPEETPLEELAETFQDTFSGALGKQSSSLLSRLISSKMPGGFTITVARKYLQTRWGLPSGRQDGVLLVALSNEPAARLGSEADAKAFLDSMAQKYASIVGVDLSSAASASGAAGAGAAAGAAMIDAGALEEITKDHKVLARQQLQVLARYLKMDLDNGERKFLKEKDTVAELQAQLDYLNAELGEFFVNGVATSFSRKKARTFDSSWNWAKQSLLSLYFEIIHGVLKNVDREVVSEAINIMNRSNDALIKFMEYHISNTDETKGENYQLVKTLGEQLIENCKQVLDVDPVYKDVAKPTGPKTAIDKNGNITYSEEPREKVRKLSQYVQEMALGGPITKESQPTIEEDLTRVYKAISAQADKQDISSSTRVEFEKLYSDLMKFLESSKEIDPSQTTQLAGMDVEDALDKDSTKEVASLPNKSTISKTVSSTIPRETIPFLHLRKKTPAGDWKYDRQLSSLFLDGLEKAAFNGVTFKDKYVLITGAGKGSIGAEVLQGLLQGGAKVVVTTSRFSKQVTDYYQSIYAKYGAKGSTLIVVPFNQGSKQDVEALIEFIYDTEKNGGLGWDLDAIIPFAAIPEQGIELEHIDSKSEFAHRIMLTNILRMMGCVKKQKSARGIETRPAQVILPMSPNHGTFGGDGMYSESKLSLETLFNRWHSESWANQLTVCGAIIGWTRGTGLMSANNIIAEGIEKMGVRTFSQKEMAFNLLGLLTPEVVELCQKSPVMADLNGGLQFVPELKEFTAKLRKELVETSEVRKAVSIETALEHKVVNGNSADAAYAQVEIQPRANIQLDFPELKPYKQVKQIAPAELEGLLDLERVIVVTGFAEVGPWGSARTRWEMEAFGEFSLEGCVEMAWIMGFISYHNGNLKGRPYTGWVDSKTKEPVDDKDVKAKYETSILEHSGIRLIEPELFNGYNPEKKEMIQEVIVEEDLEPFEASKETAEQFKHQHGDKVDIFEIPETGEYSVKLLKGATLYIPKALRFDRLVAGQIPTGWNAKTYGISDDIISQVDPITLFVLVSVVEAFIASGITDPYEMYKYVHVSEVGNCSGSGMGGVSALRGMFKDRFKDEPVQNDILQESFINTMSAWVNMLLISSSGPIKTPVGACATSVESVDIGVETILSGKARICIVGGYDDFQEEGSFEFGNMKATSNTLEEFEHGRTPAEMSRPATTTRNGFMEAQGAGIQIIMQADLALKMGVPIYGIVAMAATATDKIGRSVPAPGKGILTTAREHHSSVKYASPNLNMKYRKRQLVTREAQIKDWVENELEALKLEAEEIPSEDQNEFLLERTREIHNEAESQLRAAQQQWGNDFYKRDPRIAPLRGALATYGLTIDDLGVASFHGTSTKANDKNESATINEMMKHLGRSEGNPVIGVFQKFLTGHPKGAAGAWMMNGALQILNSGIIPGNRNADNVDKILEQFEYVLYPSKTLKTDGVRAVSITSFGFGQKGGQAIVVHPDYLYGAITEDRYNEYVAKVSAREKSAYKFFHNGMIYNKLFVSKEHAPYTDELEEDVYLDPLARVSKDKKSGSLTFNSKNIQSKDSYINANTIETAKMIENMTKEKVSNGGVGVDVELITSINVENDTFIERNFTPQEIEYCSAQPSVQSSFAGTWSAKEAVFKSLGVKSLGGGAALKDIEIVRVNKNAPAVELHGNAKKAAEEAGVTDVKVSISHDDLQAVAVAVSTKK",binding result,binds
